The target in test [1] is Human CD137 (R&D systems) (human, UniProt Q07011 24-186, limits assumed). In words: SPR Biacore, amine-coupled CD137, mAb injected (bivalent). As for the experimental part:
Human CD137 (R&D systems) was immobilized to the Biacore™ sensor chip, CMS, using conventional amine coupling. The tested antibody and control (serially diluted 1/2 10-0.63 nM) were analyzed for binding in HBS-P (GE, #BR-1003-68) at a flow rate of […]. The association was followed for 5 minutes and the dissociation for 15 minutes. Regeneration was performed twice using 10 mM Glycine pH 1.7 for 30 seconds. The kinetic parameters and the affinity constants were calculated using 1:1 Langmuir model.
In general terms: SPR reads the build-up and loss of mass on a sensor chip optically.

In test [2] the target is T1, cynomolgus CD137 on transfected CHO cells (cynomolgus; human).
T1 construct: extracellular domain;domain: transmembrane and intracellular part; also called CHO-cyCD137; CHOcynoCD137
T1 sequence (P25942 other isoform, or with tags, fused parts or gaps): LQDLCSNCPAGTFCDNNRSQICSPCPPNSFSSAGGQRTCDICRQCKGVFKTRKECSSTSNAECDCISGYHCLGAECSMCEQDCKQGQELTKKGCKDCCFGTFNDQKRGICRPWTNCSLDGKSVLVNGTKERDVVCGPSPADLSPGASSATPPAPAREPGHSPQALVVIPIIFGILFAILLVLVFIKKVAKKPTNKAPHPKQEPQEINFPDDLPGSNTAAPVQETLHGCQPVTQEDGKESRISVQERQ
As to the kind of experiment: flow cytometry, CD137-transfected CHO cells. How it is done:
(§1) Binding and EC50 was determined using flow cytometric analysis of CHO cells transfected with human CD137, cynomolgus CD137 or empty vector. The extracellular part of human or cynomolgus CD137 was fused to the transmembrane and intracellular part of human CD40 and cloned into pcDNA3.1. The vector was subsequently stably transfected into CHO cells. […] CD137-transfected and empty vector-transfected cells were incubated with CD137 antibodies for at least 1h at 4° C. to saturate the binding. In order to minimize antibody internalization, 0.05% sodium azide was used in the incubation buffer and all work was performed on ice. […] Directly after staining the cells were fixed with a paraformaldehyde solution (10x concentrate BD CellFIX, BD biosciences #340181). Cells were analyzed by flow cytometry using FACSVerse (BD Biosciences). The median fluorescence intensity (MFI) for each sample was determined and the dose response data was analysed using Graph Pad Prism.
(§2) MFI data was normalized for each antibody, where 0% is defined as the lowest value and 100% is the highest value in the dose titration for each antibody.
A general note: Flow cytometry measures light scatter and fluorescence of single cells or particles in a stream.

The target of test [3] is T2, CD40-Fc (Ancell #504-820) (human, UniProt P25942 21-193).
T2 construct: not shown: Fc part, bought reagent, not described
T2 sequence (P25942 21-193 limits assumed): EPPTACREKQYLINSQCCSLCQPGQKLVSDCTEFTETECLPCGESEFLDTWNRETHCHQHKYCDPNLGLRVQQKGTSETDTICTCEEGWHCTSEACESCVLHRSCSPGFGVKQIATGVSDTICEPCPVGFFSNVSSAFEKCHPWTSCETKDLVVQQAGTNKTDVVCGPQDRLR
In words: ELISA, coated CD40-Fc; coated CD40-Fc. How it is done: (§3) ELISA plates (Greiner #655074) were coated with 50 μl/well of recombinant human OX40 (R&D #1493-CD), CD40-Fc (Ancell #504-820) or CD137 (R&D #838-4B) diluted to a final concentration of 0.5 μg/ml in PBS for 1h at 37° C. or overnight at 4° C. Plates were washed with PBS+0.05% TWEEN20 (PBST), followed by block with PBST+1% bovine serum albumin (BSA). Antibody samples were prepared as serial 1/10 dilutions from 10-0.01 μg/ml in PBST+1% BSA and incubated for 1 h in room temperature, followed by detection using a horse radish peroxidase-conjugated anti-human kappa light chain antibody (AbD Serotec #STAR127P) and developed using SuperSignal ELISA Pico Chemiluminescent substrate (Pierce ThermoScientific #37069).
On the technique in general: ELISA stands for enzyme-linked immunosorbent assay.

Test [4] has as its target T2, CD40-Fc (Ancell #504-820). In words: ELISA, coated CD40-Fc. How it is done:
as §3

The target in test [5] is T3, recombinant human CD137-Fc (R&D #838-4B) (human, UniProt Q07011 24-186).
T3 construct: bought; also called CD137 (R&D #838-4B); not shown: Fc part, bought reagent, not described
T3 sequence (Q07011 24-186 limits assumed): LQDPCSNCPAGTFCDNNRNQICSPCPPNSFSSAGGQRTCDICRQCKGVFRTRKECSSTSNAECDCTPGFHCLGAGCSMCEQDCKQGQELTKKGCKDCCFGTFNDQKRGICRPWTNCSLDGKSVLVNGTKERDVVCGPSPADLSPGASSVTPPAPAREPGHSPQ
As to the kind of experiment: ELISA, coated CD137-Fc. How it is done:
(§4) Binding of CD137 antibodies to recombinant human CD137 was determined by sandwich ELISA. Briefly, ELISA plates (Greiner #655074) coated with recombinant human CD137-Fc (R&D #838-4B) were incubated with serial dilutions of the various CD137 antibodies to be investigated. CD137 antibodies were detected using HRP-conjugated goat-anti-human kappa light chain (AbD Serotec #STAR127P) and developed with SuperSignal ELISA Pico Chemiluminescent substrate (Pierce #37069). EC50 values of the various antibodies were determined in 2-6 separate experiments.

Test [6] has as its target T3, recombinant human CD137-Fc (R&D #838-4B). In words: ELISA, coated CD137 (R&D #838-4B).
For test [7] the target is unchanged. In words: ELISA, coated CD137-Fc. As for the experimental part:
as §4
This is another data set of the same source.

The target of test [8] is T4, human/mouse CD137 chimera 1552.
T4 construct: on transfected FreeStyle 293-F cells
As to the kind of experiment: flow cytometry, 293-F cells with CD137 chimera. How it is done:
(§5) The ability of each antibody to bind to a panel of human/mouse CD137 chimeras expressed on the surface of transfected cells was analyzed by flow cytometry.
(§6) The chimeras were designed by exchanging domains or modules of the human CD137 with the corresponding mouse domain (FIG. 7). Genes of CD137 human/mouse chimeras were synthesized (GenScript) and constructs cloned into pcDNA3.1 vector (Invitrogen) and transiently transfected into FreeStyle 293-F cells (Invitrogen). The transfected cells were incubated with CD137 antibodies and control antibodies, followed by incubation with anti-human IgG-PE (Jackson Immunoresearch) for detection and analyzed with FACS Verse (BD Biosciences). Binding to the different chimeric constructs was calculated as relative MFI compared to the binding of the isotype control, followed by normalization to the full-length human CD137 construct to minimize the effect of affinity differences between individual antibodies.

Test [9] concerns the target T5, human/mouse CD137 chimera 1551.
T5 construct: on transfected FreeStyle 293-F cells
As to the kind of experiment: flow cytometry, 293-F cells with CD137 chimera. As for the experimental part:
as §5, §6

Test [10] has as its target T6, human/mouse CD137 chimera 1555.
T6 construct: on transfected FreeStyle 293-F cells
As to the kind of experiment: flow cytometry, 293-F cells with CD137 chimera. As for the experimental part:
as §5, §6

The target in test [11] is T7, human/mouse CD137 chimera 1554.
T7 construct: on transfected FreeStyle 293-F cells
In words: flow cytometry, 293-F cells with CD137 chimera. How it is done:
as §5, §6

In test [12] the target is T8, human/mouse CD137 chimera 1550.
T8 construct: on transfected FreeStyle 293-F cells
In words: flow cytometry, 293-F cells with CD137 chimera. How it is done: as §5, §6

Test [13] addresses T9, human/mouse CD137 chimera 1553.
T9 construct: on transfected FreeStyle 293-F cells
In words: flow cytometry, 293-F cells with CD137 chimera. As for the experimental part: as §5, §6

The target in test [14] is T10, full-length human CD137 construct 1030 (human, UniProt Q07011 24-255).
T10 construct: whole, on cells; on transfected FreeStyle 293-F cells; also called Full-length CD137
T10 sequence (Q07011 24-255): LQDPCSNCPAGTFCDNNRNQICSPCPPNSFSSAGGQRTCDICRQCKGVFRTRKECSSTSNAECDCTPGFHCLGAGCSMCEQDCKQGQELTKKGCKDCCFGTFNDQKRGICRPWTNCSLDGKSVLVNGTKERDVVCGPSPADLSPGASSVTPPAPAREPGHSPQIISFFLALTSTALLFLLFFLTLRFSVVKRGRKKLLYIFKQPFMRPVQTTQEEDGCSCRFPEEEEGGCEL
As to the kind of experiment: flow cytometry, 293-F cells with full-length CD137 (reference of the normalization). How it is done:
as §5, §6

Test [15] deals with T11, human CD137 on transfected CHO cells (human, UniProt Q07011 24-186; P25942 194-277, limits assumed).
T11 construct: extracellular domain;domain: transmembrane and intracellular part; also called CHO-huCD137; CHOhCD137
T11 sequence (Q07011 other isoform, or with tags, fused parts or gaps limits assumed): as the sequence (P25942 other isoform, or with tags, fused parts or gaps) above, with L4P, S19N, K50R, I66T, S67P, Y69F, E75G, A149V counted along it
In words: flow cytometry, CHO-huCD137; 95% CI of EC50. How it is done: as §1, §2

Test [16] deals with T1, cynomolgus CD137 on transfected CHO …. As to the kind of experiment: flow cytometry, CHO-cyCD137; 95% CI of EC50. How it is done:
as §1, §2

Test [17] has as its target T4, human/mouse CD137 chimera 1552. In words: flow cytometry, 293-F cells with CD137 chimera; Exp 1. How it is done:
as §5, §6

For test [18], the target named is T5, human/mouse CD137 chimera 1551. Described as above. How it is done: as §5, §6
In test [19] the target is T6, human/mouse CD137 chimera 1555. Described as above. As for the experimental part:
as §5, §6

In test [20] the target is T7, human/mouse CD137 chimera 1554. Described as above. How it is done:
as §5, §6

In test [21] the target is T8, human/mouse CD137 chimera 1550. The test is described as above. How it is done: as §5, §6
Test [22] deals with T9, human/mouse CD137 chimera 1553. The description is as above. How it is done:
as §5, §6

In test [23] the target is T12, recombinant human OX40 (R&D #1493-CD) (human, UniProt P43489 29-216, limits assumed).
T12 sequence (looked up): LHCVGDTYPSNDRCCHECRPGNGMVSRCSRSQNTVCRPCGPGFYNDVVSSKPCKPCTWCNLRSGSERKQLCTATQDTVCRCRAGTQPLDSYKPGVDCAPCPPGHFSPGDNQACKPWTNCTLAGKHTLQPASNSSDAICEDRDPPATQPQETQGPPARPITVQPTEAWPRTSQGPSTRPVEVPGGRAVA
In words: ELISA, coated OX40. As for the experimental part:
as §3

Test [24] deals with T4, human/mouse CD137 chimera 1552. As to the kind of experiment: flow cytometry, 293-F cells with CD137 chimera; Exp 2. How it is done:
as §5, §6

Test [25] has as its target T5, human/mouse CD137 chimera 1551. The test is described as above. How it is done:
as §5, §6

In test [26] the target is T6, human/mouse CD137 chimera 1555. The description is as above. As for the experimental part: as §5, §6
In test [27] the target is T7, human/mouse CD137 chimera 1554. The description is as above. How it is done: as §5, §6
Test [28] has as its target T8, human/mouse CD137 chimera 1550. Described as above. How it is done: as §5, §6
Test [29] concerns the target T9, human/mouse CD137 chimera 1553. The description is as above. As for the experimental part: as §5, §6

Where only a bound is given, the exact number is not on record here.

Human CD137 (R&D systems), sequence (Q07011 24-186 limits assumed): as the sequence (Q07011 24-186 limits assumed) above

B1: 1202/1203 (antibody, V domains shown)
VH: EVQLLESGGGLVQPGGSLRLSCAASGFTFYGSSMSWVRQAPGKGLEWVSSIYYGSSGTYYADSVKGRFTISRDNSKNTLYLQMNSLRAEDTAVYYCARSYYGYFDYWGQGTLVTVSS
VL: DIQMTQSPSSLSASVGDRVTITCRASQSISSYLNWYQQKPGKAPKLLIYAASSLQSGVPSRFSGSGSGTDFTLTISSLQPEDFATYYCQQYYTVVPFTFGQGTKLEIK
The koff is the rate constant with which the complex falls apart. Low readings indicate slow dissociation, high ones fast dissociation. As usually defined, the kon is the rate constant with which the complex forms. Low values mean slower complex formation, high ones faster complex formation. For orientation: EC50 means the concentration giving half of the maximal effect. As to B1, the Kd in test [1] amounted to 0.976 nM. The koff in [1] worked out at 0.00066 s⁻¹. The molecule further came in with a kon in [1] of 676000 M⁻¹ s⁻¹. The “Ratio, cyno:human” value in [2] was 0.67. The EC50 in [3] was greater than 40 nM; in test [4], greater than 10 µg/mL; in test [5], 0.41 nM; in [6], 0.4 nM; in [7] it was roughly 0.06 µg/mL; in test [15], 0.16 to 0.27 µg/mL. The molecule also had an EC50 in test [16] of 0.11 to 0.17 µg/mL. Moreover, the “MFI/isotype control normalized to full-length human CD137” value (“MFI/isotype control normalized” below) in test [8] is 0.06; in test [9], 0.05; in test [10], 0.26; in test [11], 0.51; in test [12], 0.05; in test [13], 0.65. Also, in test [14], the “MFI/isotype control normalized” value was determined as 1.

B2: 1214/1215 (antibody, V domains shown)
VH: EVQLLESGGGLVQPGGSLRLSCAASGFTFSSYAMSWVRQAPGKGLEWVSSIGSGGGYTGYADSVKGRFTISRDNSKNTLYLQMNSLRAEDTAVYYCARVGHPFDYWGQGTLVTVSS
VL: DIQMTQSPSSLSASVGDRVTITCRASQSISSYLNWYQQKPGKAPKLLIYAASSLQSGVPSRFSGSGSGTDFTLTISSLQPEDFATYYCQQDAYPHTFGQGTKLEIK
Take B2: the “MFI/isotype control normalized” value in test [17] is 0.32; in [18] it was 0.07; in test [19], 0.3; in test [20] it was 0.26; in test [21], 0.06; in test [22], 0.41. The “MFI/isotype control normalized” value came out at 0.13 in [24]; 0.15 in test [25]; 0.45 in test [26]; 0.15 in [27]; 0.14 in test [28]; 0.15 in test [29]. For the same molecule, the binding result in test [23] and in [4] was “no binding (tested: 10 µg/ml)” throughout.

These data come from patent US20190169308A1 (ALLIGATOR BIOSCIENCE, published 2019).
